Broadly, the Kd is the constant that tells how readily two partners part at equilibrium. A high value points to weaker binding.

Our source for the Kd values is patent US20060275811A1 (CANON, published 2006).

The target in this assay is T1, hen egg-white lysozyme (hen, UniProt P00698 19-147).
T1 construct: mature; also called HEL; target substance
Kind of assay: SPR (BIAcore X), HEL amine-coupled to CM5 chip, polypeptide at 50, 100 and 200 nM in PBS-T. Here is the method:
The strains are cultured at 30° C. for 16 hours in ampicillin (100 μg/ml)-selective LB medium. IPTG is added thereto at the final concentration of 1 mM, followed by additional 16-hour culture to induce protein expression. The bacterial cells collected by centrifugation are subjected to osmotic pressure treatment (the bacterial cells are mixed with 0.5 M sucrose solution and supplemented with a 5-fold volume of pure water) and disrupted by French press to obtain as soluble fractions, the proteins of interest present in the E. coli periplasms. Next, the functional polypeptide chains are purified with HEL columns (HEL is adsorbed and immobilized onto CNBr-activated Sepharose 4B (Code No. 17-0430-01 (Amersham)); the immobilization is performed according to the accompanying protocol). The binding ability between the functional polypeptides and the target substances (HEL) is evaluated by using BIAcore (registered trademark) X (SPR measurement apparatus). […] Next, the molarity of the functional polypeptide chain is adjusted to 50 nM, 100 nM and 200 nM for the first functional polypeptide chain (HyHEL10 scFv-(G4S)3-WinZipA1), the second functional polypeptide chain (D1.3 scFv-(G4S)3-WinZipB1) and a 1:1 mixture of the first and second functional polypeptide chains by using PBS-T (0.1% Tween 20) buffer. […]

T1 sequence (P00698 19-147): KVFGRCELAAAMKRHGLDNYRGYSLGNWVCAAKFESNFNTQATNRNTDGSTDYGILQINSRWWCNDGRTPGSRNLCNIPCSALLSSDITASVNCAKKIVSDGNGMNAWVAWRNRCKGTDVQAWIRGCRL

B1: HyHEL10 scFv-(G4S)3-WinZipA1 (scFv)
scFv: DIQLQESGPSLVKPSQTLSLTCSVTGDSITSDYWSWIRKFPGNRLEYMGYVSYSGSTYYNPSLKSRISITRDTSKNQYYLDLNSVTTEDTATYYCANWDGDYWGQGTLVTVSAGGGGSGGGGSGGGGSDIVLTQSPATLSVTPGNSVSLSCRASQSIGNNLHWYQQKSHESPRLLIKYASQSISGIPSRFSGSGSGTDFTLSINSVETEDFGMYFCQQSNSWPYTFGGGTKLIITAGGGGSGGGGSGGGGSTVAQLEEKVKTLRAQNYELKSRVQRLREQVAQLA
notes: Secreted from E. coli with the pelB signal of a modified pET-20b(+) vector and purified on a HEL column; also called first functional polypeptide chain; first polypeptide chain
Molecule B1 returned a Kd of 0.3 nM.
